From publication PMC4569848 come the findings set out here.

One test deals with β-arrestin-1–Y63-F2Y (UniProt P17870). The experiment in a line: 19F-NMR.
A further test concerns the target β-arrestin-1-R7-F2Y (UniProt P17870). As to the kind of experiment: 19F-NMR.

Sequence of β-arrestin-1-R7-F2Y (P17870 other isoform, or with tags, fused parts or gaps R7-F2Y): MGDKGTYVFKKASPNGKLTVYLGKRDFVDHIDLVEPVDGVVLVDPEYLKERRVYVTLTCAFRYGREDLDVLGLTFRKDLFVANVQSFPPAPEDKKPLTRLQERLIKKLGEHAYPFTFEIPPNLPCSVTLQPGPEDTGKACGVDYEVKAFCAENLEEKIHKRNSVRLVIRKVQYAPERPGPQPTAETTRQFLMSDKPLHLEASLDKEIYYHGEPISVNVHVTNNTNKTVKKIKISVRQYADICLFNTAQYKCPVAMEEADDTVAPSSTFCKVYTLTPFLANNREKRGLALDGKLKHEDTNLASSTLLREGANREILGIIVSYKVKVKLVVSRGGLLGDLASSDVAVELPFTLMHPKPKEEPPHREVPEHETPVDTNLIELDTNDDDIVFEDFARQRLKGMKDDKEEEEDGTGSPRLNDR
Sequence of β-arrestin-1–Y63-F2Y (P17870 whole entry, stated change not applied): as the sequence (P17870 other isoform, or with tags, fused parts or gaps R7-F2Y) above, with Y7R counted along it

As for “GRK6pp (GRK6-phosphorylated β2AR C-tail) E369A”, the other: 19F chemical shift change with β-arrestin-1–Y63-F2Y stood at 0.89 p.p.m; in the test with β-arrestin-1-R7-F2Y, 0.01 p.p.m.

“GRK6pp (GRK6-phosphorylated β2AR C-tail) pS355S”: the figures for the other: 19F chemical shift change with β-arrestin-1–Y63-F2Y and in the test with β-arrestin-1-R7-F2Y were 0.02 p.p.m and 0.09 p.p.m, respectively.
